{"source": "patent US7122382", "binders": {"B1": {"name": "p53, P02340 1-390 (protein)", "chain": "MTAMEESQSDISLELPLSQETFSGLWKLLPPEDILPSPHCMDDLLLPQDVEEFFEGPSEALRVSGAPAAQDPVTETPGPVAPAPATPWPLSSFVPSQKTYQGNYGFHLGFLQSGTAKSVMCTYSPPLNKLFCQLAKTCPVQLWVSATPPAGSRVRAMAIYKKSQHMTEVVRRCPHHERCSDGDGLAPPQHLIRVEGNLYPEYLEDRQTFRHSVVVPYEPPEAGSEYTTIHYKYMCNSSCMGGMNRRPILTIITLEDSSGNLLGRDSFEVRVCACPGRDRRTEEENFRKKEVLCPELPPGSAKRALPTCTSASPPQKKKPLDGEYFTLKIRGRKRFEMFRELNEALELKDAHATEESGDSRAHSSYLKTKKGQSTSRHKKTMVKKVGPDSD", "modifications": "here or on the partner: 35S-methionine label or biotinylated lysine, by its role in the assay"}}, "target": "SV40 large T (SV40), P03070", "experiment": "biotinylated row protein on streptavidin beads, 35S column protein counted", "settings": "remark: other sources report otherwise"}
{"binder": "B1", "values": [{"measurement": "RI (c.p.m.)", "result": 884, "unit": "c.p.m."}]}
